We go through 3 molecules from US20180214548A1 (SHANGHAI YUNYI HEALTHCARE AND TECHNOLOGY, published 2018).

Experiment [1] deals with T1, ICOS (human, UniProt Q9Y6W8 21-140, limits assumed).
T1 sequence (looked up): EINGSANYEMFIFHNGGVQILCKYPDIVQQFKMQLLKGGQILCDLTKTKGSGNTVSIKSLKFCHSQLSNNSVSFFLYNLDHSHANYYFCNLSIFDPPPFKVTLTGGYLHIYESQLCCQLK
Nature of the experiment: ELISA, coated protein 1 ug/mL; antibody concentration not stated. How it is done:
(§1) 100 uL of the diluted recombinant proteins were added to each well of 96-well plate. The plates were sealed with plastic film and incubated at 4° C. overnight. The plates were washed twice with wash buffer (PBS+0.01% (v/v) Tween20), and incubated with blocking buffer (PBS+0.01% (v/v) Tween20+1% (w/w) BSA) at room temperature for 2 hours. The blocking buffer was aspirated away, and 100 uL of purified anti-PD-1 antibodies were added to each well and incubated for 2 hours at 37° C. The plates were washed three times with wash buffer (PBS+0.01% (v/v) Tween20). HRP-conjugated secondary antibody (Sigma) was added to each well and incubated for 2 hours at 37° C. After the plates were washed three times with wash buffer, 100 uL TMB substrate was added to each well and incubated for 30 minutes at room temperature. 100 uL stop solution (0.1N HCl) was added to each well to stop the reaction. The absorbance at 450 nm was measured with an ELISA plate reader (384plus SpectraMax, Molecular Devices).
(In general: ELISA stands for enzyme-linked immunosorbent assay.)

Experiment [2] deals with T2, CTLA4 (human, UniProt P16410 37-162, limits assumed).
T2 sequence (looked up): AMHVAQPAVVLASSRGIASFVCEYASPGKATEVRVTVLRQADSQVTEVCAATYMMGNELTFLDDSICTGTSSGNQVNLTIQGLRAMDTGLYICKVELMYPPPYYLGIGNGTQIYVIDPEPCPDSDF
The experiment is described as above. How it is done:
as §1

The target of experiment [3] is T3, B7-1 (human, UniProt P33681 35-242).
T3 sequence (looked up): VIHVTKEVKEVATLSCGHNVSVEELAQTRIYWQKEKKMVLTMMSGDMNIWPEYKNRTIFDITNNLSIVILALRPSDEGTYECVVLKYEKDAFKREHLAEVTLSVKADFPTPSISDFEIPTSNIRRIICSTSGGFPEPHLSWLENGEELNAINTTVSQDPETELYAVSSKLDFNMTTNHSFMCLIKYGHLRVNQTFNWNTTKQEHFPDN
Described as above. How it is done: as §1

Experiment [4] has as its target T4, full length human PD-1 on cells (human, UniProt Q15116 25-288).
T4 construct: Also used here for PD-1 on human T cells/PBMC; also called CHO-K1-hPD-1; hPD-1
Description: flow cytometry, CHO-K1-hPD-1 cells; antibody 0.316 nM. The source says: (§2) CHO-K1 cells were stably transfected with pIRES plasmid containing the nucleic acid sequence encoding full length human PD-1 (see Example 2, step 2) to generate CHO-K1 cells stably expressing human PD-1 (herein referred to as CHO-K1-hPD-1 cells). Other CHO-K1 were stably transfected with pIRES plasmid containing the nucleic acid sequence encoding full length cyno PD-1 to generate CHO-K1 cells stably expressing cyno PD-1 (herein referred to as CHO-K1-cPD-1 cells). CHO-K1-hPD-1 and CHO-K1-cPD-1 cells were cultured and expanded in T-75 culture flasks to 90% confluence. The culture media was aspirated, and the cells were washed twice with HBSS (Hanks Balanced Salt Solution, Invitrogen). The cells were treated with enzyme-free cell dissociation solution (Versene solution, Invitrogen) and collected. The cells were then washed twice with HBSS, cell counts were determined, and cells were resuspended with HBSS at 2×10⁶ cells/mL. Goat serum was added to the cell suspension to a final concentration of 1%, and the cells were blocked for 30 minutes on ice and then washed twice with HBSS. The cells were collected after centrifugation and resuspended in FACS buffer (HBSS+1% BSA, v/v) at 2×10⁶ cells/mL. 100 uL of the cell suspension were then added to each well of 96-well plate. 100 uL of purified anti-PD-1 antibodies from Example 2 were added to each well of the 96-well plate and incubated for 2 hours on ice. […] The samples were washed three times with FACS buffer, and 100 uL fixation buffer (4% paraformaldehyde v/v) were added to each well and incubated for 10 minutes. The cells were then washed twice with FACS buffer and resuspended in 100 uL FACS buffer. The mean fluorescence intensity (MFI) was determined using FACS Calibur (BD), and the results are shown in FIGS. 7-8 and in Tables 10-11.

For experiment [5], the target named is T4, full length human PD-1 on cells. Description: flow cytometry, CHO-K1-hPD-1 cells; antibody 0.0316 nM.
From the text: as §2

Experiment [6] has the same target. Nature of the experiment: cell-based receptor-ligand blocking, flow cytometry: CHO-K1-hPD-1 cells, blocked ligand biotinylated PD-L1-Fc, streptavidin-Alexa 488. How it is done: CHO-K1-hPD-1 cells were cultured and expanded in T-75 culture flasks to 60-80% confluence. The culture media was aspirated, and the cells were washed twice with PBS. The cells were treated with TrypLE™ Express (Invitrogen) and collected. Trypsin was neutralized by the addition of 8 mL culture medium, and cell counts were determined. […] The cells were blocked for 15 minutes at 37° C. Meanwhile, the wells of 96-well round-bottom plates were blocked with 200 uL blocking buffer for 1 hour at 37° C. The blocking buffer was discarded, and 200 uL cells were dispensed to each well of the 96-well plates (2×10^5 cells/well). The plates were centrifuged at 500 g for 5 minutes, and the supernatants were discarded. The cells were resuspended in 100 uL antibody prepared in blocking buffer. […] The plates were incubated at 4° C. for 90 minutes and washed twice with 200 uL blocking buffer. […] The plates were washed three times with blocking buffer and resuspended in 200 uL blocking buffer. The mean fluorescence intensity (MFI) was determined using FACS Calibur (BD).

Experiment [7] has the same target. Nature of the experiment: flow cytometry, CHO-K1-hPD-1 cells; antibody 100 nM.
From the text: as §2
Background: In flow cytometry, cells or beads pass a laser one at a time.

The target is the same in experiment [8]. Nature of the experiment: flow cytometry, CHO-K1-hPD-1 cells; antibody 3.16 nM.
From the text: as §2

For experiment [9] the target is unchanged. Nature of the experiment: flow cytometry, CHO-K1-hPD-1 cells; antibody 1 nM.
From the text: as §2

Experiment [10] has the same target. Nature of the experiment: flow cytometry, CHO-K1-hPD-1 cells; antibody 31.6 nM.
From the text: as §2

T4 sequence (Q15116 25-288 limits assumed): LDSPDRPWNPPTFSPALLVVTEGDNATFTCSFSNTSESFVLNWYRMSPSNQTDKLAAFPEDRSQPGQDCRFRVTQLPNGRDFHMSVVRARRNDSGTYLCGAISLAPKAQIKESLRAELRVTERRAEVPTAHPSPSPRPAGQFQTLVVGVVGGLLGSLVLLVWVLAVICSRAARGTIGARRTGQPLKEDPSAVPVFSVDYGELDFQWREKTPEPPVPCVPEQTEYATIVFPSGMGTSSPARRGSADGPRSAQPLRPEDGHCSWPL

B1: chimeric anti-PD-1 antibody 32B5C7 (antibody, V domains shown)
VH: EVQLLESGGGLVQPGGSLRLSCAASGFTFSSYAMSWVRQAPGKGLEWVSTISGSGGTTYYADSVKGRFTISRDNSKNTLYLQMNSLRAEDTAVYYCTLTGDPDYWGQGTLVTVSS
VL: EIVLTQSPATLSLSPGERATLSCRASQSVSSYLAWYQQKPGQAPRLLIYDASKRATGIPARFSGSGSGTDFTLTISSLEPEDFAVYYCQQRNNWPLTFGGGTKVEIK
notes: Purified from hybridoma of Harbour H2L2 mice: human variable regions, rat constant regions
Turning to B1, the OD450 nm in experiment [1] amounted to 0.483; in [2], 0.172; in experiment [3] it was 0.36. The Mean fluorescence intensity turned out to be 26.1 in experiment [4]; 2.1 in [5]; 253 in experiment [7]; 97.5 in [8]; 51.1 in [9]; 241 in experiment [10]. In addition, the “IC50 (read off the curve)” value in [6] is approximately 6 nM.

B2: chimeric anti-PD-1 antibody 76G5B3 (antibody, V domains shown)
VH: QVQLVESGGGVVQPGRSLRLSCAASGFTFSDYGFHWVRQAPGKGLEWVAVIWYDGSNEYYTDSVKGRFTISRDNSKNTLYLQMNSLRAEDTAMYFCVVNPFDYWGQGTLVTVSS
VL: DIQMTQSPSSLSAFVGDRVTITCRASQGINHYLAWYQQKPGKAPNLLILAASTLLSGVPSRFGGRGSGTDFTLIISSLQPEDVATYYCQKYDSAPYTFGQGTKLEIK
notes: as for B1
Turning to B2, the OD450 nm came to 0.173 in [1], 0.135 in experiment [2] and 0.271 in experiment [3]. Moreover, the Mean fluorescence intensity in [4] stood at 76.8; in experiment [5] it was 2.2; in [7], 443; in [8] it was 280; in [9], 166; in experiment [10], 466. Moreover, in experiment [6], the “IC50 (read off the curve)” value is approximately 0.8 nM.

B3: chimeric anti-PD-1 antibody 21G8F11 (antibody, V domains shown)
VH: EVQLLESGGGLAQPGGSLRLSCAASGFSFNTYLMHWVRQAPGKGLEWVSAISGGGGNTYYADSVKGRFTISRDNSKNTLYLQMNSLRAEDTAVYYCAKENRIPVAPFDYWGQGTLVTVSS
VL: DIQMTQSPSTLSASVGDRVTITCRASQSISTWLAWYQQKPGKAPKLLIYKASSLESGVPSRFSGSGSGTEFTLTISSLQPDDLATYYCQQYNSFSWTFGQGTKVEIK
notes: as for B1
For the molecule B3, the OD450 nm came out at 0.128 in experiment [1], 0.091 in [2] and 0.154 in experiment [3]. Further, the “IC50 (read off the curve)” value in experiment [6] is approximately 6 nM. Moreover, the Mean fluorescence intensity is 661 in experiment [7] and 166 in [9].
